1 molecule from patent US20060276386A1 (published 2006) can be followed below.

The test addresses T1, C-terminally FLAG-tagged full length UCH-L5 (mouse, UniProt Q9WUP7 1-329).
T1 construct: range 1-329; Co-expressed in HEK-293 cells and immunoprecipitated with an anti-FLAG monoclonal; also called UCH-L5 FLAG
T1 sequence: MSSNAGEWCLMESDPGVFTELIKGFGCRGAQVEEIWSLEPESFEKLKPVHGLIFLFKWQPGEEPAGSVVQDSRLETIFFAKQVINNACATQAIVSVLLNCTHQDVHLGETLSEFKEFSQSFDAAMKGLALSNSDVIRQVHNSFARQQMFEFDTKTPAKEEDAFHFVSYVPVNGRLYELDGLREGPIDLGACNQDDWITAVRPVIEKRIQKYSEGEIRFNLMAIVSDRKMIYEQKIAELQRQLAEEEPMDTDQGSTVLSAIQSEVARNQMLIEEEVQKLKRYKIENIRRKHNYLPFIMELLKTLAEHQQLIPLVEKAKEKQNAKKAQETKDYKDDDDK
The test can be described thus: co-immunoprecipitation: anti-FLAG IP, anti-HA western blot, HEK-293 lysates. On the procedure: C-terminally FLAG®-tagged UCH-L5 or UCH-L5ΔC were co-expressed in human embryonic kidney (HEK)—293 cells with N-terminally HA-tagged Smad proteins.
Referring to FIG. 3, HEK-293 cells were transfected with 20 μg of DNA construct directing the expression of UCH-L5 FLAG or UCH-L5ΔC FLAG and 20 μg of DNA construct expressing one of: HA-Smad 3₁₋₃₈₅; HA-Smad3₁₋₂₄₀; or HA-Smad3₁₋₄₄. Lysates of the cells were prepared by a standard detergent lysis method, using 1% Triton X-100 and then immunoprecipitated with an anti-FLAG monoclonal. The precipitated proteins were then subjected to SDS-PAGE.
For comparison, a blot of the same samples was then probed with a haemagglutinin-specific 1st antibody.
On the technique in general: Immunoblotting shows a protein as a band on a membrane.

B1: N-terminally HA-tagged Smad3 residues 1-144 (other)
chain: MSSILPFTPPIVKRLLGWKKGEQNGQEEKWCEKAVKSLVKKLKKTGQLDELEKAITTQNVNTKCITIPRSLDGRLQVSHRKGLPHVIYCRLWRWPDLHSHHELRAMELCEFAFNMKKDEVCVNPYHYQRVETPVLPPVLVPRHT
notes: not shown: haemagglutinin (HA) tag, N-terminal
In the case of B1, the binding result was “no binding”.
